The data set concerns MS2 coat protein. The data set can be described thus: apparent KD of MS2 coat protein; higher = weaker reporter binding. As to conditions: Eterna round: R107. Summed up: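 On-chip transcription from Illumina sequencing clusters produced the designed RNA switches. These were titrated with SNAP-549-labelled MS2 coat protein (twofold steps, 0.7 or 1.5 nM to 3 µM) in 100 mM Tris-HCl pH 7.5, 80 mM KCl, 4 mM MgCl2, with or without constant ligand. The apparent KD given is the per-design median of normalised cluster binding-curve fits.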

The mark [1] stands for this setting: input ligand: theophylline 20 uM.
Where [2] appears, read: input ligand: theophylline 2 mM.
Setting [3] is: input ligand: tryptophan 2.4 mM.

As for “UAGACGGCCGGAAGGAGCGGUACAUGAGGAUCACCCAUGUACCUCUGGGCAUCCGUAGUGUGCCAGGUAGGUCGCCGGUUGCGGG [Tebecela]”, the “apparent KD of MS2 coat protein” value (input ligand: arginine 13.2 mM) stood at 12.6 nM; the “apparent KD of MS2 coat protein” value (input ligand: none) came to 11.6 nM; the “apparent KD of MS2 coat protein” value under setting [1] was found to be 12.5 nM; the “apparent KD of MS2 coat protein” value under setting [2] amounted to 11.4 nM; the “apparent KD of MS2 coat protein” value under setting [3] came to 13.7 nM.
For “UAGGCACGAGACAUGAGGAUCACCCAUGUUCGAGGACCGGUACGGCCGCCACUCGGUGGACUCAUGGUAAAGCCGGUGAGCCAAU [AK 1.2 SS Trypt (A)]” the same measures were 16.7 nM, 17.1 nM, 28.1 nM, 15.8 nM and 51.6 nM.
Take “UAGUAACAUGAGGAUCACCCAUGUCCGGAUACCAGACAUAUACCAGUCCCUUGGCAGCCGCCAGUUAAAAUCUAACACAAAAGUU [theeternabot_sameState_MS2_Theo_A_34]”: the “apparent KD of MS2 coat protein” value by setting is: (input ligand: arginine 13.2 mM) 38.8 nM; under setting [1], 55 nM; under setting [3], 34.4 nM.
Taken in the same sequence, the figures for “UAUAAAAUAACAGAUACCAGCGUGUUAUAAAACAUGAGGAUCACCCAUGUAGUGAUCAAGCGCCCUUGGCAGCUGGUAUUUUAUA [7.B]” were 97.2 nM, 150 nM and 142 nM.
“UAUACAUGAGGAUCACCCAUGUACCAUGAAGGAGCGCAGAAAUCUGCAGGUAGGUCGCAUGGGUUAUGACCUCGGCAUAAUAACG [Enreusus]”: the “apparent KD of MS2 coat protein” value came out at 40.5 nM (input ligand: arginine 13.2 mM); 27.8 nM (input ligand: none); 46.9 nM under setting [1]; 39.7 nM under setting [2]; 26.2 nM under setting [3].
For “UAUAUAGAUGGACGUCAUAUAGAUGCAGAAGGAGCGUAGGAAACUACAGGUAGGUCGCUGAGGUACAUGAGGAUCACCCAUGUAG [SSArg A #19 Slice of Pi]” the same measures were 34.3 nM, 26.5 nM, 38 nM, 37.9 nM and 20.9 nM.
Regarding “UAUAUAUAAAUUGAUACCAGCGAGAAAACAUGAGGAUCACCCAUGUUCGCCCAUGUUAAGCGCCCUUGGCAGCAAUAUUAUUAUU [AstrosExyTheB#3]”, the “apparent KD of MS2 coat protein” value turned out to be 18.8 nM (input ligand: arginine 13.2 mM), 33.4 nM under setting [1] and 33.8 nM under setting [3].
Consider “UAUCCACAUGAGGAUCACCCAUGUAGGGAAGGAGCGGUGAUUUCACCAGGUAGGUCGCCUUGCUGAGGGUAGCCGGUGGAAUCGU [Exclusion - Arginine A (Freestyle 32)]”, for which the “apparent KD of MS2 coat protein” value is, setting by setting: (input ligand: arginine 13.2 mM) 24.4 nM; (input ligand: none) 19.7 nM; under setting [1], 22.4 nM; under setting [2], 9.15 nM; under setting [3], 10.9 nM.
Taken in the same sequence, the figures for “UAUCCACAUGAGGAUCACCCAUGUAUGGAAGGAGCGGUGAAUGAACCAGGUAGGUCGCCAUGGUGAGGAUCAUCUAUGGAUUCGU [Exclusion - Arginine A (Freestyle 9)]” were 30.3 nM, 56.5 nM, 82.4 nM, 72.2 nM and 86.7 nM.
“UAUCGAAACUGAAGGAGCGAGAUGACAAACAUGAGGAUCACCCAUGUUAUGGGUUGUUAAUCUCAGGUAGGUCGCAGUGGUAGCA [Same State Arginine B GF 17]”: the “apparent KD of MS2 coat protein” value reads like this: (input ligand: arginine 13.2 mM) 88.1 nM; (input ligand: none) 141 nM; under setting [1], 142 nM; under setting [2], 245 nM; under setting [3], 156 nM.
“UAUCGAGGUACAUGAGGAUCACCCAUGUAUCGAGGACCGGUACGGCCGCCACUCGAUAAUGGCGGAUCGUUAGUCCUCUUCGAUA [Tryp A Ex 4b]”: the “apparent KD of MS2 coat protein” value under setting [1] came to 14 nM and the “apparent KD of MS2 coat protein” value under setting [2] is 12.7 nM.
Take “UAUCGGAACUGAAGGAGCGAGAUGACAAACAUGAGGAUCACCCAUGUUAUGGGUUGUUAAUCUCAGGUAGGUCGCAGUGGUAGCA [#27 Same State - Arginine B]”: the “apparent KD of MS2 coat protein” value was 52.7 nM (input ligand: arginine 13.2 mM); 151 nM (input ligand: none); 138 nM under setting [1]; 194 nM under setting [2]; 151 nM under setting [3].
Regarding “UAUCGGCACUGAAGGAGCGAGUUGACAAACAUGAGGAUCACCCAUGUUAUGGGUUGUUAAUCUCAGGUAGGUCGCAGUUGUCGCA [Same State Arginine B GF 19]”, the “apparent KD of MS2 coat protein” value reads like this: (input ligand: arginine 13.2 mM) 221 nM; (input ligand: none) 334 nM; under setting [1], 403 nM; under setting [2], 576 nM; under setting [3], 500 nM.
With “UAUCUACAUAUAUAGGUUAUUCGAUUAUUUCGAGGACCGGUACGGCCGCCACUCGUUAACAUAUACAUGAGGAUCACCCAUGUUA [JR_Nu_SSTryptoA_Sub023]”, the “apparent KD of MS2 coat protein” value reads like this: (input ligand: arginine 13.2 mM) 15.6 nM; under setting [1], 19 nM; under setting [2], 17.5 nM.
Turning to “UAUGCACAUGAGGAUCACCCAUGUAUGGAAGGAGCGGUGAAUGAACCAGGUAGGUCGCCAUGGUGAGGAUCAUCUAUGUAUUCGU [Exclusion - Arginine A (Freestyle 8)]”, the “apparent KD of MS2 coat protein” value amounted to 49.1 nM (input ligand: arginine 13.2 mM); 81 nM (input ligand: none); 101 nM under setting [1]; 117 nM under setting [2]; 71.7 nM under setting [3].

The values above are taken from the supplement of paper PMC9170038.
